This passage reports Km and kcat results from article PMC10783122, “Loss of Bacteroides thetaiotaomicron bile acid-altering enzymes impacts bacterial fitness and the global metabolic transcriptome” (Microbiology Spectrum, 2023).

Holding throughout (experiment): purified protein
Assay type in all cases: biochemical, Bacteroides thetaiotaomicron
Holding throughout (details): 5 mM NAD+, 10 mM MOPS, 37 °C, 0.2 nM enzyme

Substrate in data set [1]: C[C@H](CCC(=O)NCCS(=O)(=O)O)[C@H]1CC[C@H]2[C@@H]3[C@H](O)C[C@@H]4C[C@H](O)CC[C@]4(C)[C@H]3CC[C@]12C
Substrate in data set [2]: C[C@H](CCC(=O)O)[C@H]1CC[C@H]2[C@@H]3[C@H](O)C[C@@H]4C[C@H](O)CC[C@]4(C)[C@H]3C[C@H](O)[C@]12C
Substrate in data set [3]: C[C@H](CCC(=O)NCC(=O)O)[C@H]1CC[C@H]2[C@@H]3[C@H](O)C[C@@H]4C[C@H](O)CC[C@]4(C)[C@H]3CC[C@]12C
Substrate in data set [4]: C[C@H](CCC(=O)O)[C@H]1CC[C@H]2[C@@H]3[C@H](O)C[C@@H]4C[C@H](O)CC[C@]4(C)[C@H]3CC[C@]12C

B1: HSDHa (BT_1911), 7α-hydroxysteroid dehydrogenase (Bacteroides thetaiotaomicron VPI-5482) (protein)
chain: MKRFENKVVVITGAAGGIGEATTRRIVSEGGKVVIADLSQERADKLAAELTQAGADVRPIYFSATELQSCKELVDFAMKEYGQIDVLINNVGGTDPKRDLNIEKLDIDYFDEVFHLNLCCTMYLSQQVIPIMTTHGGGNIVNVASISGLTADANGTLYGASKAGVINLTKYIATQMGKKNIRCNAVAPGLVLTPAALDNLNEEVRNIFLGQCATPYLGEPEDVAATIAFLASNDARYITGQTIVVDGGLTIHNPTVELS
notes: full-length codon-optimized gene, pETite C-His, C-terminal hexahistidine tag, E. coli Rosetta (DE3) pLysS, cobalt resin purified
Take B1: the Km (as a rule, the concentration of substrate that gives half-maximal velocity) in “purified protein [1]” is 301.2 ± 60.4 µM; in “purified protein [2]”, 649.2 ± 167.6 µM; in the data set “purified protein [3]” it was 342.2 ± 104.1 µM; in “purified protein [4]” it was 203.4 ± 24.3 µM. The kcat (usually the number of substrate molecules converted per active site and unit of time at saturation) is 4520 ± 681 s⁻¹ in “purified protein [1]”, 4070 ± 195 s⁻¹ in the data set “purified protein [2]”, 4090 ± 292 s⁻¹ in the data set “purified protein [3]” and 4580 ± 375 s⁻¹ in the data set “purified protein [4]”.
